# According to patent US20190241655A1 (Merck Sharp & Dohme, published 2019):
# Numbering of substitutions follows the chain as printed.
# B1: DX446 (antibody, V domains shown)
# VH: QIQLVQSGPELKKPGETVKISCKASGYTFTNYRMTWVKQAPGKGLKWMGWINTNTGDPTYAEELKGRFAFSSETSASTAYLQINNLKNEDTATYFCAREGFFNYAMDYWGQGTSVTVSS
# VL: DILLTQSPAILSVSPGKRVSFSCRASQSIGTSIHWYQQRTNGSPRLLIKYASESISGIPSRFSGSGSGTDFTLSINSVESEDIADYYCQQSNSWPPTFGAGTKLELK
# notes: Mouse hybridoma anti-ILT3 antibody tested as hybridoma supernatant; also called Anti-ILT3 (DX446)
# B2: DX435 (antibody, V domains shown)
# VH: EVQLQQSGPEMVKPGASVKISCKASGYAFTDYNIHWVKKSHGKSPEWIGHIYPYNKDTVFNQNKTKATLTVDKSTTTAYMDLRSLTSEDSAVYYCARGAVGYFDYWGQGTTLTVSS
# VL: DIQMTQSPASLSASVGETVTITCRASGNIHNFLAWYQQKQGKSPQLLVYNAKTLADGVPSRFSGSGSGTQYSLKINSLQPEDFGSYYCQHFWSYPFTFGAGTKLELK
# notes: Mouse hybridoma anti-ILT3 antibody tested as hybridoma supernatant
# B3: DX440 (antibody, V domains shown)
# VH: EVQLQQSGPELVKPGASVKISCKASGYTFSDYNMHWVKQSHGKSLKWIGHIFPYIGDTVYNQKFTSKATLTVDNSSSTGYMEIRSLTSEDSAVYYCARGAVGYFDYWGQGTTLTVSS
# VL: B2 VL with F32Y, L46F, S85T, Y94F
# notes: as for B2
# B4: DX439 (antibody, V domains shown)
# VH: EVQLQQPGPELVKPGASVKISCKASGYTFTDYNMHWVRQRHGKSLEWIGHIYPYNGNTVYNQRFKNKATLNVDNFSSTAYMELRSLTSEDSAVYYCARGAVGYFDHWGQGTTLTVSS
# VL: B2 VL with K42R, S85N, K103N
# notes: as for B2
# Molecular target: T1, ILT3Fc (human)
# T1 construct: also called ILT3Fc-fusion protein; human ILT3Fc
# T1 sequence (chain, as listed by the source limits assumed): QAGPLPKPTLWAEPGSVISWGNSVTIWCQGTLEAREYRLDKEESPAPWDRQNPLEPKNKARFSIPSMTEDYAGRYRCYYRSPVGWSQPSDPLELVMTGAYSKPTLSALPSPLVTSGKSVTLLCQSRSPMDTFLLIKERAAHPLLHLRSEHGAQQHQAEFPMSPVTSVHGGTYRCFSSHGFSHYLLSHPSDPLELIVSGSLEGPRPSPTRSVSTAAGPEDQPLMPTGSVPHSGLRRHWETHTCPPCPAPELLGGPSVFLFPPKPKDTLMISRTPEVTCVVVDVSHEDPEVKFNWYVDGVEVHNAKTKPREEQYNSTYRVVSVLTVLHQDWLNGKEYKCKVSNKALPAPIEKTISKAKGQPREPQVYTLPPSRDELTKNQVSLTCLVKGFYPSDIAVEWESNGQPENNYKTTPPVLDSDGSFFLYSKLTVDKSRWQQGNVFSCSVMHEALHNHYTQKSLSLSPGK
# Assay: Octet (BLI), ILT3Fc on anti-human Fc biosensors, antibody supernatant 167 nM
row,Binder,binding result
1,B1,binds
2,B2,binds
3,B3,binds
4,B4,binds
